Laboratory results taken from IntAct's records for PubMed 22068056.

B1: SWI/SNF-related matrix-associated actin-dependent regulator of chromatin subfamily D member 3 (Mus musculus), Q6P9Z1 (parent)
chain: MAADEVAGGARKATKSKLFEFLVHGVRPGMPSGARMPHQGAPMGPPGSPYMGSPAVRPGLAPAGMEPARKRAAPPPGQSQAQGQGQPVPTAPARSRSAKRRKMADKILPQRIRELVPESQAYMDLLAFERKLDQTIMRKRVDIQEALKRPMKQKRKLRLYISNTFNPAKPDAEDSDGSIASWELRVEGKLLDDPSKQKRKFSSFFKSLVIELDKDLYGPDNHLVEWHRTPTTQETDGFQVKRPGDLSVRCTLLLMLDYQPPQFKLDPRLARLLGLHTQSRSAIVQALWQYVKTNRLQDSHDKEYINGDKYFQQIFDCPRLKFSEIPQRLTALLLPPDPIVINHVISVDPSDQKKTACYDIDVEVEEPLKGQMSSFLLSTANQQEISALDSKIHETIESINQLKIQRDFMLSFSRDPKGYVQDLLRSQSRDLKVMTDVAGNPEEERRAEFYHQPWSQEAVSRYFYCKIQQRRQELEQSLVVRNT

Variants of: B1
Conditions: with smca4_mouse Smarca4, Q3TKT4
Sequence of smca4_mouse Smarca4, Q3TKT4 (Q3TKT4 whole entry): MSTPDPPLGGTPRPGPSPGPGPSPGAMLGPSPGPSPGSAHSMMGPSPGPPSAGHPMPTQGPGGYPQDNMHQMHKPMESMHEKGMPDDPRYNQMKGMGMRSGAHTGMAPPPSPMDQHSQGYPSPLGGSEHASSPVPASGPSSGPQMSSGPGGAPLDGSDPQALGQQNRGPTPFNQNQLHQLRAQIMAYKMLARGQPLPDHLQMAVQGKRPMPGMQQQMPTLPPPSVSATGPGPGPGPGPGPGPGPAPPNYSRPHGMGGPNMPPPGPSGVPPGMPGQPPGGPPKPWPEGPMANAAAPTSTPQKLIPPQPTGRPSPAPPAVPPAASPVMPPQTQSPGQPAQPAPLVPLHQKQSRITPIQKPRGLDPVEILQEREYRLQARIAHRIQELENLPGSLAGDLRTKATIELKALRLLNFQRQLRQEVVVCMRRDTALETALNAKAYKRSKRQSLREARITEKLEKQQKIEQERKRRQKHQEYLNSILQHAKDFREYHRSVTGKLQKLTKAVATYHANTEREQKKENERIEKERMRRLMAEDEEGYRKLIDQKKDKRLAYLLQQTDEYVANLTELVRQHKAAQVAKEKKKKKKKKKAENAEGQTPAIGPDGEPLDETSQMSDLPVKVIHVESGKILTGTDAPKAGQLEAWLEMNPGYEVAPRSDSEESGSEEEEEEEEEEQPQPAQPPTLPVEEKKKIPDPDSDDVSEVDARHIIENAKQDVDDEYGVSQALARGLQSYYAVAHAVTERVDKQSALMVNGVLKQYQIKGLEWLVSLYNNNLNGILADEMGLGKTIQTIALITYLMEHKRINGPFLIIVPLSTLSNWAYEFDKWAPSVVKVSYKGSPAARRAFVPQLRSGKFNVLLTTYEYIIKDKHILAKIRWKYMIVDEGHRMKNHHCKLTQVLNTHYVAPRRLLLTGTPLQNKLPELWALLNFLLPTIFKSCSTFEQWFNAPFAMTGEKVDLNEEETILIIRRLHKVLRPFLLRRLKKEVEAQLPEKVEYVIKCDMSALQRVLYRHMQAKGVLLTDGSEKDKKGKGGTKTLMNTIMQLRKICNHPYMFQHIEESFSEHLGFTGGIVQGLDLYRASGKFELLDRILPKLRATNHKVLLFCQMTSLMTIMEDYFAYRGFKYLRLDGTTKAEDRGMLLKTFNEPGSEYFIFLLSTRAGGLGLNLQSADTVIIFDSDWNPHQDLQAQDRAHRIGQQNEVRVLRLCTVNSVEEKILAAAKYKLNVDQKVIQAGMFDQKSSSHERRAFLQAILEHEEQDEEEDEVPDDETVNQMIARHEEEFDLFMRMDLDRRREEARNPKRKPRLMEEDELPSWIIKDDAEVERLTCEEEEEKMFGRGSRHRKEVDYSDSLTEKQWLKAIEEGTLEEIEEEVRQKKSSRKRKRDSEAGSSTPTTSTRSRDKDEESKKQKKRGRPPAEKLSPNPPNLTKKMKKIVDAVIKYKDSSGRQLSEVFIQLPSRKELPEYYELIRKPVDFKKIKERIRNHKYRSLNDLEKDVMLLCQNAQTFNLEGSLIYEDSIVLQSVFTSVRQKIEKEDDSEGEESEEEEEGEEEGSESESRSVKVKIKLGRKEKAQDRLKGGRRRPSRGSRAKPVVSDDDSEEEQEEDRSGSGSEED

effect of a mutation on the interaction	Variant
disrupting interaction	MAADEVAGGARKATKSKLFEFLVHGVRPGMPSGARMPHQGAPMGPPGSPYMGSPAVRPGLAPAGMEPARKRAAPPPGQSQAQGQGQPVPTAPARSRSAKRRKMADKILPQRIRELVPESQAYMDLLAFERKLDQTIMRKRVDIQEALKRPMKQKRKLRLYISNTFNPAKPDAEDSDGSIASWELRVEGKLLDDPSKQKRKFSSFFKSLVIELDKDLYGPDNHLVEWHRAPTTQETDGFQVKRPGDLSVRCTLLLMLDYQPPQFKLDPRLARLLGLHTQSRSAIVQALWQYVKTNRLQDSHDKEYINGDKYFQQIFDCPRLKFSEIPQRLTALLLPPDPIVINHVISVDPSDQKKTACYDIDVEVEEPLKGQMSSFLLSTANQQEISALDSKIHETIESINQLKIQRDFMLSFSRDPKGYVQDLLRSQSRDLKVMTDVAGNPEEERRAEFYHQPWSQEAVSRYFYCKIQQRRQELEQSLVVRNT [T229A]
